# Reference: patent EP4631972A1, “SITE-SPECIFIC COUPLED PEGYLATED INTERLEUKIN-2 MUTANT WITH RECEPTOR AFFINITY PREFERENCE AND USE THEREOF” (priority 2022, dated 2024)
# Tests used:
# [1] = Pharmacokinetic study in cynomolgus monkeys; conditions: cynomolgus monkey
# Experimental: Blood was collected before and after administration (4h, 8h, 24h, 48h, 72h, 120h, 168h, 240h, 336h) in the first cycle and after administration (8h, 24h, 48h, 72h, 120h, 168h, 240h) in the second cycle to detect plasma drug concentration.
# [2] = mouse, in vivo, sc, 1 mg/kg
# Experimental: (§1) Balb/c mice were purchased, with 4 mice in each group. Each IL-2 mutant to be tested was administered subcutaneously once at a dose of 1 mg/kg. Blood was collected from the orbit at different time points after administration, and the plasma was separated and the plasma drug concentration was detected by ELISA. The main pharmacokinetic parameters were calculated, and C-T curve was plotted.
# Treg cells [3] = assay: Pharmacodynamic study in cynomolgus monkeys, peripheral Treg cells; format: in vivo; conditions: doses ≤400 µg/kg
# Source text: For information on administration and grouping, see Table 14.
# Treg cells [4] = assay: P-STAT5 activation in Treg cells of human PBMCs (flow cytometry); format: cell-based; conditions: P-STAT5 MFI in CD3+/CD4+/CD25+ cells of human PBMCs, 30 min stimulation
# Experimental: In the example, the activation effect of each mutant prepared in Example 6 on P-STAT5 in different cell subsets (Tregs, CD8+T cells, NK cells) from human PBMCs (Miaoshun Biotechnology) was detected.
# Human PBMC cells were thawed and resuspended to 1.5×10^6 cells/ml in RPMI1640 medium containing 10% FBS. 100 µl was added to each well of a V-bottom 96-well culture plate. Each IL-2 mutant prepared in Example 6 was diluted 10-fold in series: 1000 nM was used as the working concentration for the first well, and then 100 µl/well of each serial dilution was added to each cultured cell, stimulated at 37°C for 30 min, and the reaction was terminated on ice. The cells were treated with a commercial fixative and permeabilization agent (BD biosciences 558049 & 558050), and stained with antibodies against CD3, CD4, CD25, and CD8 according to conventional methods. P-STAT5 antibody staining was also performed (Table 7) to detect the mean fluorescence intensity (MFI) of P-STAT5 in CD3+/CD4+/CD25+ (Treg cells) and CD8+/CD3+ cells ([…]) by flow cytometry.
# [5] = Pharmacokinetic study in mice, single administration, plasma concentration by ELISA; conditions: 1 mg/kg s.c. single administration
# Experimental: as §1
# Treg cells [6] = assay: Pharmacodynamic (PD) study in mice, peripheral Treg cells; format: in vivo, Balb/c mice; conditions: 1 mg/kg s.c. single administration
# Experimental: In this example, the pharmacodynamics (PD) of each IL-2 mutant obtained in Example 6 was studied in mice after a single administration to mice. SPF grade Balb/c mice were purchased and randomly divided into groups according to body weight, with 3 mice in each group. Drug administration started on the day of grouping. The dosing and grouping information is shown in Table 9, where G1-G5 were administered once, G6 and G7 were administered once a day, for a total of three doses. 30 µl of blood was taken from each group of mice, for PEGylated IL2 mutants and the negative control, blood was collected on day 0 (pre-administration), day 2, 3, 4, 5, 6 and 7 (only for G3, G4 and G5), and for IL2 and IL2-N88R, blood was collected on day 0 (pre-administration), day 1, 2 and 3. The number of each cell subpopulation was measured by flow cytometry. Antibodies against the staining marker used in flow cytometry are shown in Table 10, and the gating settings are shown in Table 11. Table 9 Dosing and grouping table for single-dose PD study in mice
# [7] = female, first-cycle dosing 50 µg/kg s.c.
# [8] = female, second-cycle dosing 400 µg/kg s.c.
# [9] = male, first-cycle dosing 50 µg/kg s.c.
# [10] = male, second-cycle dosing 400 µg/kg s.c.
substance,measurement,setting,value
60K-1PEG-IL2-N88R-N77C: IL2-N88R-N77C with 60 kDa PEG conjugated to the cysteine at position 77,AUC inf,[1]; [7],181.7098 µg·h/mL
same,AUClast,[1]; [7],148.6109 µg·h/mL
same,CL,[1]; [7],0.28
same,Cmax,[1]; [7],701.0718 ng/mL
same,MRT,[1]; [7],128.4211 h
same,Tmax,[1]; [7],72 h
same,AUC inf,[1]; [8],2158.472 µg·h/mL
same,AUClast,[1]; [8],1360.931 µg·h/mL
same,CL,[1]; [8],0.19
same,Cmax,[1]; [8],10419.65 ng/mL
same,MRT,[1]; [8],101.9 h
same,Tmax,[1]; [8],8 h
same,AUC inf,[1]; [9],213.0031 µg·h/mL
same,AUClast,[1]; [9],157.7992 µg·h/mL
same,CL,[1]; [9],0.23
same,Cmax,[1]; [9],815.2866 ng/mL
same,MRT,[1]; [9],135.9233 h
same,Tmax,[1]; [9],48 h
same,AUC inf,[1]; [10],2122.205 µg·h/mL
same,AUClast,[1]; [10],1412.112 µg·h/mL
same,CL,[1]; [10],0.19
same,Cmax,[1]; [10],10199.77 ng/mL
same,MRT,[1]; [10],100.7 h
same,Tmax,[1]; [10],8 h
same,T1/2,[2],20.78 ± 1.92 h
same,activation and proliferation of peripheral blood Treg cells,Treg cells [3],clear activation and proliferation
same,EC50,Treg cells [4],35.1 nM
same,AUC inf,[5],392.06252 ± 33.89153 µg·h/mL
same,AUClast,[5],380.55249 ± 34.19595 µg·h/mL
same,CL,[5],2.56±0.22
same,Cmax,[5],6633.54 ± 581.69 ng/mL
same,MRT,[5],39.45 ± 0.44 h
same,Tmax,[5],8 to 24 h
same,mean half-life,[5],20.78 h
same,mean residence time (MRT),[5],39.45 h
same,"activation peak of Treg proportion, time",Treg cells [6],6 days
same,increase in Treg proportion at peak,Treg cells [6],about 15 fold
